Earlier results as cited in paper PMC8393563.

Target: PGRMC1 (Homo sapiens) (UniProt O00264)

Kd: < 3.5 µM
Substance: PGRMC1 (from UniProt O00264)
